Data published in the supplement of paper PMC12636428.

System: Saccharomyces cerevisiae
Assay: transcriptional activation domain activity (GFP:mCherry ratio, weighted mean of sorted bins, harmonized to initial dataset scale) (arbitrary fluorescence ratio units); higher = stronger transcriptional activation
Settings: beta-estradiol 1 µM; induction time 4 h
Procedure, shortened: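 Yeast diploids with a GFP reporter received barcoded protein tiles, fused to an estradiol-inducible synthetic transcription factor, at the URA3 locus. Cultures were diluted 1:5 into SC holding 1 uM beta-estradiol, incubated 4 hours at 30 °C, sorted into 8 bins on GFP:mCherry ratio, and sequenced for barcodes, with tiles under 50 reads discarded. Activation activity values come from the read-weighted mean of bin median fluorescence, averaged across barcodes and linearly placed on the initial dataset scale.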

Row | Sequence | transcriptional activation domain activity
1 | AGQILANQVIITNLTNFIYSITPLPVRYYYLLEMLKFIFFLFMLGMLPLALCA | 52400
2 | MDIYGSCICPGGLALGEFFYFLFFLVLSSYYYYFLFSFLFLFSLFLSFVVWRF | 49700
3 | QWSVMTYLYLAVRYFGIFLAMICSYWGGLFYIPETVSHVMFLLMQWSYSVYFC | 78000
4 | CFYLTTRFWDYKRKSYHYFLFGLCYFVNIMDLFYIWFFRDNVYYFIMCWCLTL | 57200
5 | RRSKHSSRSHRSRRHRDRSVSDENGTERRHKSERRHKHRHRSRSGGSRERRHT | 47200
6 | YLSFLGIGVTFYTFLLLFFFLEDLEDFLVFFEGVLMIFLKLFIVFWTSLLVFL | 62000
7 | MTILVILSILCLFQSYMGGMYSLDAHWVDIGLLRIYCNTLCIKMCQILMQFLL | 22700
8 | MCKVSCLGLFGGSFFFFGFGFYLLFYSSFHFSLPGWLVWILYFFFTFFGGSLR | 45900
9 | TFFLMRDIFIMEFLAHCDLLTIFVLAQTGEYARDLVKAFFSCNLRLLVVIFLG | 47700
10 | MASVVCCTELWCLFGLDVCFFPFSLFALPLVLSPSLFPLSSLSFIIFLFFPVS | 54700
11 | RTTSLGVWFLLIQFLWYGAFGVLYVWFFCQTFEYFNTLLVFDYILRFILCLMF | 51200
12 | WWLRINLNICISYWIVATGVVVVYDWVLTLYGACQILLVMQMFVLGPCLILSV | 46900
13 | MASQATTLRGYNIRKRDNVFEPKSSENLNSLNQSEEEGHIGRWPPLGYEAVSA | 50300
14 | MRELFIFILFLFHFYPYSYFNYYIFFSFSYFLFRYFVSIIIIFFLIQVVFGLV | 101000
15 | MVKSFALGGLILLFSFLLLLLLLSLLLLFISSLLSLSLIPFFLFDSLSIARFS | 64400
16 | NHCKVFFLSFLFFVIYNYLLFILFFYILLLYCYPKPLFPLLSSSPPSFPPQFI | 50300
17 | TLSGVLMLFWQPNGQRLIGNATLWCWIRPGLEFYRIVLNYGWIWIILGVNICT | 73100
18 | VAPLLLAGACCIAHHFMLVFLEGCTVQSEFWIRNANSAFSLLISALLASCVGT | 77100
19 | GVFVLLEQYCGINFYGLRKHGGTASMCPLGGTLRSWAYRFVAISYPPKRMVNG | 27600
20 | GHSGVSVDMHVSFLNSCREGEKVIIKSVIDKKGSRLAFVRVEIKRERDDAIII | 49500
21 | MALPLHFRYVSVTFIFLASFFWPVGFFSFFSLFFPATNSFLLFLSAFFRLVLF | 54100

Row | Sequence | transcriptional activation domain activity
22 | LAHFVIHRGLIISIMQAVFSAIFYFAPIALYQGMLLVGYTTVYTMWPLFSLVL | 58500
23 | AVEARFVTPQDPVLIQDDGSRLPPVPLEEAYKLNVLRREVIERAGSVAKAIEG | 63700
24 | DDADGKARSRRKDYSDDERGDTRRSRRDEHRSSKEHRSRTVKEGENDRRKAHR | < 6570
25 | LSQNYLLTWDDSGDWLSLADAGVIAALLFRNNLSETWLDEFASWCRLLWYLRQ | 58600
26 | HLLSPHIAPELIELLVVRTFLQPHPWPVPSCATTGFLRTLAWISRWAWRHSPL | 43900
27 | PTTTTTPSSPSTTCRSPTRRRAPRRRSACTGSRTRRGSPQSRRRCCRRTTSTT | 28900
28 | DTPFALHTLLIMHGHILLCENAKVSLDSSDTLNIFVPLVTVLINRLTNRKEYS | 32800
29 | LYNTLFLQLSAIAREFNFPSAAGLCCYMNFSDNGSIFAPRITDDAWIILWRRY | 71800
30 | GTGRSSDDVSSGAGSEEVSQTLDEKMAEEQKGRQRLNNIIQQFYIKGALVIVG | 67400
31 | MAKGGAKDKKSVEKKGADKGKGKSDEAADKGSKGKGGLKAATAVNVRHILCEK | 23500
32 | MTYLPFINFSLDIFVIVIVIVIYFPFFVTNFFNWFFSPFWCYLINYLFNLNLF | 52400
33 | EPHNDIILDLLFTLAYWHALAKLRLHTDFTLSKLEEVTMFLGRQLRYLRRVTC | 51800
34 | CRGFGFWVRVLLGICGVCGVVALRTYAIYHVFQLNLPSRGLRFYLPLLFYIAC | 57100
35 | RARCIPSAPTRRPLTRSTSTCRRPPRTTGSCWTSSRPSSTPKTSSSAAKPAPC | 46200
36 | MTVLQYPFRFIVRTHFPLIWAYSSSLGVGYVFLIGSFFLFISLHPLPLFCLLC | 66100
37 | MVICFHSLFLQLTTCVLDLYLHYGFLVLFLFLFFIFFPASYFSAYFFFFFIFC | 35900
38 | AFLLPFANHHRFVSYCLYVFGFIFFVFSLEKGYYKQQFTQFCVTHMCLLLVVF | 39800
39 | RLRVWELGRNSWTVYKFNPDLFPFIDVYPWPRICRLLKCLVFVFRYLEIIRPL | 51800
40 | AGDKPEKSKKDKKKEKEEKKKAAVAAEKEKQEKGDEAVAAAPSPVAAATPSLL | 29900
41 | KPEPAGEKGEGAASGGEGQSGGEGGRRRPSGRGRGRGRGRGGRGGRANRGSRG | 38800
